Key:
Experiment in all cases: IEDB peptide-MHC binding, purified MHC/competitive/radioactivity; filed as Kd, often an IC50 or EC50 that approximates it; ≥ and ≤ were set here for values at or beyond the usual limits of such assays
HLA-A*02:03 = target: HLA-A*02:03
HLA-A*02:06 = target: HLA-A*02:06
HLA-A*02:02 = conditions: source organism: Vaccinia virus WR
HLA-A*11:01 = target: HLA-A*11:01
HLA-A*33:01 = target: HLA-A*33:01
HLA-A*31:01 = target: HLA-A*31:01
HLA-A*68:01 = target: HLA-A*68:01
HLA-A*03:01 = target: HLA-A*03:01
[1] = source organism: Vaccinia virus WR
[2] = source organism: SARS coronavirus Tor2
[3] = source organism: Mammarenavirus machupoense
[4] = source organism: Dengue virus 2 Jamaica/1409/1983
[5] = source organism: Mammarenavirus guanaritoense
[6] = source organism: Lymphocytic choriomeningitis virus (strain Armstrong)
[7] = source organism: Vaccinia virus Copenhagen

Sequence: QTGINNVQSL
- Kd (HLA-A*02:03; [1]): ≥ 24.4 µM
- Kd (HLA-A*02:06; [1]): ≥ 54 µM
- Kd (HLA-A*02:02): ≥ 20.2 µM

Sequence: RINLLVQYGA
- Kd (HLA-A*02:03; [1]): 15.3 µM
- Kd (HLA-A*02:06; [1]): 7.65 µM
- Kd (HLA-A*02:02): 10.3 µM

Sequence: RQVSVKLLI
- Kd (HLA-A*02:03; [1]): 0.254 µM
- Kd (HLA-A*02:06; [1]): 0.000135 µM
- Kd (HLA-A*02:02): 17.9 µM

Sequence: SAKQLRTRIR
- Kd (HLA-A*11:01; [1]): ≥ 45.5 µM
- Kd (HLA-A*33:01; [1]): 17.3 µM
- Kd (HLA-A*31:01; [1]): 1.1 µM
- Kd (HLA-A*68:01; [1]): ≥ 28.8 µM
- Kd (HLA-A*03:01; [1]): ≥ 70.1 µM

Sequence: SASAFFGMSR
- Kd (HLA-A*11:01; [2]): 0.0119 µM
- Kd (HLA-A*33:01; [2]): 0.121 µM
- Kd (HLA-A*31:01; [2]): 0.00948 µM
- Kd (HLA-A*68:01; [2]): 0.01 µM
- Kd (HLA-A*03:01; [2]): 0.966 µM

Sequence: SIFPANINDK
- Kd (HLA-A*11:01; [1]): 0.00748 µM
- Kd (HLA-A*33:01; [1]): ≥ 46 µM
- Kd (HLA-A*31:01; [1]): ≥ 70 µM
- Kd (HLA-A*68:01; [1]): 0.121 µM
- Kd (HLA-A*03:01; [1]): 1.22 µM

Sequence: SIYIAVANCV
- Kd (HLA-A*02:03; [1]): 0.0627 µM
- Kd (HLA-A*02:06; [1]): 1 µM
- Kd (HLA-A*02:02): 0.534 µM

Sequence: SLETVKMGA
- Kd (HLA-A*02:03; [1]): 0.547 µM
- Kd (HLA-A*02:06; [1]): ≥ 23.4 µM
- Kd (HLA-A*02:02): 11.2 µM

Sequence: SLIGSKTQI
- Kd (HLA-A*02:03; source organism: Homo sapiens): 0.0238 µM
- Kd (HLA-A*02:06; source organism: Homo sapiens): 10.6 µM

Sequence: SLRCGACIRR
- Kd (HLA-A*11:01; [2]): 0.963 µM
- Kd (HLA-A*33:01; [2]): 0.0895 µM
- Kd (HLA-A*31:01; [2]): 0.0163 µM
- Kd (HLA-A*68:01; [2]): 0.915 µM
- Kd (HLA-A*03:01; [2]): 0.265 µM

Sequence: SLVSKHWEL
- Kd (HLA-A*02:03; [1]): 0.036 µM
- Kd (HLA-A*02:06; [1]): 0.0349 µM
- Kd (HLA-A*02:02): 0.00116 µM

Sequence: SMNVAVIDK
- Kd (HLA-A*11:01; [1]): 0.000278 µM
- Kd (HLA-A*33:01; [1]): 7.08 µM
- Kd (HLA-A*31:01; [1]): 0.612 µM
- Kd (HLA-A*68:01; [1]): 4.88 µM
- Kd (HLA-A*03:01; [1]): ≥ 67.7 µM

Sequence: SQASSRSSSR
- Kd (HLA-A*11:01; [2]): 1.53 µM
- Kd (HLA-A*33:01; [2]): 1.32 µM
- Kd (HLA-A*31:01; [2]): 0.47 µM
- Kd (HLA-A*68:01; [2]): 0.4 µM
- Kd (HLA-A*03:01; [2]): 7.97 µM

Sequence: SSFDYCGTDH
- Kd (HLA-A*11:01; [3]): ≥ 69.7 µM
- Kd (HLA-A*33:01; [3]): ≥ 42 µM
- Kd (HLA-A*31:01; [3]): ≥ 31.8 µM
- Kd (HLA-A*68:01; [3]): ≥ 41.8 µM
- Kd (HLA-A*03:01; [3]): ≥ 70 µM

Sequence: SSRVDRYSKK
- Kd (HLA-A*11:01; [1]): 0.332 µM
- Kd (HLA-A*33:01; [1]): ≥ 29.6 µM
- Kd (HLA-A*31:01; [1]): 0.835 µM
- Kd (HLA-A*68:01; [1]): 3.04 µM
- Kd (HLA-A*03:01; [1]): 0.285 µM

Sequence: STFNMWREIL
- Kd (HLA-A*02:03; [1]): 0.907 µM
- Kd (HLA-A*02:06; [1]): 3.36 µM
- Kd (HLA-A*02:02): 3.12 µM

Sequence: STTENAAYQV
- Kd (HLA-A*02:03; [1]): 4.7 µM
- Kd (HLA-A*02:06; [1]): 0.101 µM
- Kd (HLA-A*02:02): 0.928 µM

Sequence: SVKSFEIDK
- Kd (HLA-A*11:01; [2]): 0.137 µM
- Kd (HLA-A*33:01; [2]): 12.2 µM
- Kd (HLA-A*31:01; [2]): 1.11 µM
- Kd (HLA-A*68:01; [2]): 0.729 µM
- Kd (HLA-A*03:01; [2]): 1.56 µM

Sequence: TAFQHQNSKK
- Kd (HLA-A*11:01; [2]): 0.139 µM
- Kd (HLA-A*33:01; [2]): ≥ 70 µM
- Kd (HLA-A*31:01; [2]): ≥ 54.3 µM
- Kd (HLA-A*68:01; [2]): 0.0161 µM
- Kd (HLA-A*03:01; [2]): 0.332 µM

Sequence: TAVCMKCFK
- Kd (HLA-A*11:01; [1]): 0.0102 µM
- Kd (HLA-A*33:01; [1]): 4.46 µM
- Kd (HLA-A*31:01; [1]): 0.448 µM
- Kd (HLA-A*68:01; [1]): 0.0113 µM
- Kd (HLA-A*03:01; [1]): 0.211 µM

Sequence: TFIMLEGETK
- Kd (HLA-A*11:01; [1]): 0.0118 µM
- Kd (HLA-A*33:01; [1]): 3.42 µM
- Kd (HLA-A*31:01; [1]): 0.816 µM
- Kd (HLA-A*68:01; [1]): 0.176 µM
- Kd (HLA-A*03:01; [1]): 0.0388 µM

Sequence: TLDQLEDSEY
- Kd (HLA-A*11:01; [1]): 1.71 µM
- Kd (HLA-A*33:01; [1]): ≥ 40.3 µM
- Kd (HLA-A*31:01; [1]): 14.4 µM
- Kd (HLA-A*68:01; [1]): 4.07 µM
- Kd (HLA-A*03:01; [1]): 8.62 µM

Sequence: TLLATVTGGI
- Kd (HLA-A*02:03; [4]): 0.0128 µM

Sequence: TLLGLILFVL
- Kd (HLA-A*02:03; [1]): 0.796 µM
- Kd (HLA-A*02:06; [1]): 0.672 µM
- Kd (HLA-A*02:02): 0.169 µM

Sequence: TMEIEDQEYH
- Kd (HLA-A*11:01; [5]): ≥ 69.7 µM
- Kd (HLA-A*33:01; [5]): ≥ 70 µM
- Kd (HLA-A*31:01; [5]): ≥ 70 µM
- Kd (HLA-A*68:01; [5]): 8.53 µM
- Kd (HLA-A*03:01; [5]): ≥ 70 µM

Sequence: TQTAGPWHL
- Kd (HLA-A*02:06; [4]): 0.435 µM

Sequence: VIEDITFLR
- Kd (HLA-A*11:01; [1]): 0.0546 µM
- Kd (HLA-A*33:01; [1]): 0.42 µM
- Kd (HLA-A*31:01; [1]): 0.0276 µM
- Kd (HLA-A*68:01; [1]): 0.0118 µM
- Kd (HLA-A*03:01; [1]): 1.56 µM

Sequence: VSIILANER
- Kd (HLA-A*11:01; [1]): 0.0472 µM
- Kd (HLA-A*33:01; [1]): 7.69 µM
- Kd (HLA-A*31:01; [1]): 0.13 µM
- Kd (HLA-A*68:01; [1]): 0.00848 µM
- Kd (HLA-A*03:01; [1]): ≥ 78 µM

Sequence: VTFRERYSYK
- Kd (HLA-A*11:01; [1]): 0.00319 µM
- Kd (HLA-A*33:01; [1]): 2.48 µM
- Kd (HLA-A*31:01; [1]): 3.36 µM
- Kd (HLA-A*68:01; [1]): 0.00283 µM
- Kd (HLA-A*03:01; [1]): 0.000457 µM

Sequence: VTMFEALPH
- Kd (HLA-A*11:01; [6]): 0.0156 µM
- Kd (HLA-A*33:01; [6]): ≥ 77.7 µM
- Kd (HLA-A*31:01; [6]): ≥ 77.9 µM
- Kd (HLA-A*68:01; [6]): 18.7 µM
- Kd (HLA-A*03:01; [6]): 0.467 µM

Sequence: VVQRCASNK
- Kd (HLA-A*11:01; [2]): 0.639 µM
- Kd (HLA-A*33:01; [2]): ≥ 77.7 µM
- Kd (HLA-A*31:01; [2]): 8.26 µM
- Kd (HLA-A*68:01; [2]): ≥ 48.3 µM
- Kd (HLA-A*03:01; [2]): 0.663 µM

Sequence: VVSTGYHFR
- Kd (HLA-A*11:01; [2]): 0.00855 µM
- Kd (HLA-A*33:01; [2]): 0.0412 µM
- Kd (HLA-A*31:01; [2]): 0.00169 µM
- Kd (HLA-A*68:01; [2]): 0.00734 µM
- Kd (HLA-A*03:01; [2]): 0.0315 µM

Sequence: YANLDDVYSY
- Kd (HLA-A*11:01; [1]): 0.0382 µM
- Kd (HLA-A*33:01; [1]): 15.6 µM
- Kd (HLA-A*31:01; [1]): ≥ 33.3 µM
- Kd (HLA-A*68:01; [1]): 1.65 µM
- Kd (HLA-A*03:01; [1]): ≥ 25.7 µM

Sequence: YLLVKWYKK
- Kd (HLA-A*11:01; [7]): 0.189 µM
- Kd (HLA-A*33:01; [7]): 0.0305 µM
- Kd (HLA-A*31:01; [7]): 0.012 µM
- Kd (HLA-A*68:01; [7]): ≥ 23.4 µM
- Kd (HLA-A*03:01; [7]): 0.113 µM

Sequence: YLTMKAIEK
- Kd (HLA-A*11:01; [1]): 0.867 µM
- Kd (HLA-A*33:01; [1]): 9.83 µM
- Kd (HLA-A*31:01; [1]): 11.4 µM
- Kd (HLA-A*68:01; [1]): 1.01 µM
- Kd (HLA-A*03:01; [1]): 0.384 µM

Sequence: YSHLLPTQR
- Kd (HLA-A*11:01; [1]): 1.17 µM
- Kd (HLA-A*33:01; [1]): 0.892 µM
- Kd (HLA-A*31:01; [1]): 0.023 µM
- Kd (HLA-A*68:01; [1]): 0.0255 µM
- Kd (HLA-A*03:01; [1]): 4.03 µM

Reference: the Immune Epitope Database (IEDB)
